From patent publication US20240342246A1 (YALE UNIVERSITY, published 2024)

Biological target: IL-12 receptor β1 (IL-12Rβ1) (human, UniProt P42701 24-662)
Experiment: cell-based or functional assay

B1: wild-type (WT) IL-12 (ligand)
chain 1: IWELKKDVYVVELDWYPDAPGEMVVLTCDTPEEDGITWTLDQSSEVLGSGKTLTIQVKEFGDAGQYTCHKGGEVLSHSLLLLHKKEDGIWSTDILKDQKEPKNKTFLRCEAKNYSGRFTCWWLTTISTDLTFSVKSSRGSSDPQGVTCGAATLSAERVRGDNKEYEYSVECQEDSACPAAEESLPIEVMVDAVHKLKYENYTSSFFIRDIIKPDPPKNLQLKPLKNSRQVEVSWEYPDTWSTPHSYFSLTFCVQVQGKSKREKKDRVFTDKTSATVICRKNASISVRAQDRYYSSSWSEWASVPCS
chain 2: RNLPVATPDPGMFPCLHHSQNLLRAVSNMLQKARQTLEFYPCTSEEIDHEDITKDKTSTVEACLPLELTKNESCLNSRETSFITNGSCLASRKTSFMMALCLSSIYEDLKMYQVEFKTMNAKLLMDPKRQIFLDQNMLAVIDELMQALNFNSETVPQKSSLEEPDFYKTKIKLCILLHAFRIRAVTIDRVMSYLNAS
EC50 of STAT4 phosphorylation in human NK cells (flow cytometry, FIG. 3A): 40.8 ng/mL | EC50 of STAT4 phosphorylation in human NK cells (flow cytometry, FIG. 3B): 57.4 ng/mL

B2: H216A/K219A IL-12 (IL-12p40 HK219 with WT IL-12p35) (ligand)
chain 1: IWELKKDVYVVELDWYPDAPGEMVVLTCDTPEEDGITWTLDQSSEVLGSGKTLTIQVKEFGDAGQYTCHKGGEVLSHSLLLLHKKEDGIWSTDILKDQKEPKNKTFLRCEAKNYSGRFTCWWLTTISTDLTFSVKSSRGSSDPQGVTCGAATLSAERVRGDNKEYEYSVECQEDSACPAAEESLPIEVMVDAVAKLAYENYTSSFFIRDIIKPDPPKNLQLKPLKNSRQVEVSWEYPDTWSTPHSYFSLTFCVQVQGKSKREKKDRVFTDKTSATVICRKNASISVRAQDRYYSSSWSEWASVPCS
chain 2: RNLPVATPDPGMFPCLHHSQNLLRAVSNMLQKARQTLEFYPCTSEEIDHEDITKDKTSTVEACLPLELTKNESCLNSRETSFITNGSCLASRKTSFMMALCLSSIYEDLKMYQVEFKTMNAKLLMDPKRQIFLDQNMLAVIDELMQALNFNSETVPQKSSLEEPDFYKTKIKLCILLHAFRIRAVTIDRVMSYLNAS
EC50 of STAT4 phosphorylation in human NK cells (flow cytometry, FIG. 3B): 290 ng/mL

B3: IL-12 H216A/K217A/K219A triple mutant (HKK) (ligand)
chain 1: IWELKKDVYVVELDWYPDAPGEMVVLTCDTPEEDGITWTLDQSSEVLGSGKTLTIQVKEFGDAGQYTCHKGGEVLSHSLLLLHKKEDGIWSTDILKDQKEPKNKTFLRCEAKNYSGRFTCWWLTTISTDLTFSVKSSRGSSDPQGVTCGAATLSAERVRGDNKEYEYSVECQEDSACPAAEESLPIEVMVDAVAALAYENYTSSFFIRDIIKPDPPKNLQLKPLKNSRQVEVSWEYPDTWSTPHSYFSLTFCVQVQGKSKREKKDRVFTDKTSATVICRKNASISVRAQDRYYSSSWSEWASVPCS
chain 2: RNLPVATPDPGMFPCLHHSQNLLRAVSNMLQKARQTLEFYPCTSEEIDHEDITKDKTSTVEACLPLELTKNESCLNSRETSFITNGSCLASRKTSFMMALCLSSIYEDLKMYQVEFKTMNAKLLMDPKRQIFLDQNMLAVIDELMQALNFNSETVPQKSSLEEPDFYKTKIKLCILLHAFRIRAVTIDRVMSYLNAS
EC50 of STAT4 phosphorylation in human NK cells (flow cytometry, FIG. 3A): 839 ng/mL
